# T1: Spc105-Flag/Kre28 complex (S. cerevisiae, UniProt P53148 1-917; Q04431 1-385)
# T1 construct: Spc105 (Knl1 homologue), S. cerevisiae; Kre28 (Zwint homologue), S. cerevisiae, wild type; the asterisk is not explained; A potential proteolysis product of full-length Spc105 is marked in the gels; also called Spc105/Kre28; K subcomplex; source: Sf9 insect cells (baculovirus pFAP10), purified on anti-Flag M2 beads; also as part of the co-expressed KMN network (KT1-5 and KT1-6); not shown: Flag, …
# T1 sequence (looked up) 1: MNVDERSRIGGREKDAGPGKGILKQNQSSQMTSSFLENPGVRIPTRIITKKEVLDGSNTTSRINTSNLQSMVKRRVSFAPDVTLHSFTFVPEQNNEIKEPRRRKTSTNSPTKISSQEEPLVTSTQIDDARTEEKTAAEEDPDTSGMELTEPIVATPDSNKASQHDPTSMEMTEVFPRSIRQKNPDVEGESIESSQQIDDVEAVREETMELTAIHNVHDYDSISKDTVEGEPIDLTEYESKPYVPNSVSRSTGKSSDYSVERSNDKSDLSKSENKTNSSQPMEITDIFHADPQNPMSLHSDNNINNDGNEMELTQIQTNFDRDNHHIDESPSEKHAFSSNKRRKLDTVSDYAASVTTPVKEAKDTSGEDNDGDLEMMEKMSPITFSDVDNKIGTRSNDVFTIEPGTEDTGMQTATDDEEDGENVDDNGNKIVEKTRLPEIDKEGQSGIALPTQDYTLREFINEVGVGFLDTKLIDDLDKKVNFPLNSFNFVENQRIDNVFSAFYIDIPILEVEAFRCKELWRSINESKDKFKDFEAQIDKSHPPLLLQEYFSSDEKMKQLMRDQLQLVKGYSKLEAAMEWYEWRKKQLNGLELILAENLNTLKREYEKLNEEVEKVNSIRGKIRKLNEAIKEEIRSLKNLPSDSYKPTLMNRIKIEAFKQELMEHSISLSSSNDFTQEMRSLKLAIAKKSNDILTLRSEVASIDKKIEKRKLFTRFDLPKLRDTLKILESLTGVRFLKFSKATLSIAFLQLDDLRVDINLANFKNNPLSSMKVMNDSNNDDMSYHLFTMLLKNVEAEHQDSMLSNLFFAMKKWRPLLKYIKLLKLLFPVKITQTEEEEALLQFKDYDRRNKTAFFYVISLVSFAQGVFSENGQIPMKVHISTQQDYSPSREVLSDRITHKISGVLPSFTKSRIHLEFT
# T1 sequence (looked up) 2: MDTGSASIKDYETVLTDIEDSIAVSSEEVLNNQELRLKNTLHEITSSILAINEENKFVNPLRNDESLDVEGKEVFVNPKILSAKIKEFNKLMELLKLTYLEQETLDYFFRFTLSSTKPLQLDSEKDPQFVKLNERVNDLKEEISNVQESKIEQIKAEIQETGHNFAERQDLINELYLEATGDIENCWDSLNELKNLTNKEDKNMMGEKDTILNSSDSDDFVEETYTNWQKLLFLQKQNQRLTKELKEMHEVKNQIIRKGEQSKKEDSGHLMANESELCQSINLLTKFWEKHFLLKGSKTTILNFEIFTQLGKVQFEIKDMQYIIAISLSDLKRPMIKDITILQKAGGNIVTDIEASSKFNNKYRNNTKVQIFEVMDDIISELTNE
# Tests used:
# Conditions in all cases: both partners purified
# [1] = molecular target: T1, Spc105-Flag/Kre28 complex; experiment: pull-down; KMN or its subcomplexes from Sf9 cells immobilised on anti-Flag M2 beads; 100 µl of 2 µM Ipl1/Sli15 added to ~20 µl beads; 4 °C, 6 h; 25 mM HEPES pH 7.4, 200 mM NaCl, 1 mM MgCl2, 2.5% glycerol, 0.01% Tween-20; eluted with 3xFlag peptide; Coomassie and anti-His blot; also done with prolonged incubation times (Fig. EV3A)
# [2] = molecular target: T2, recombinant budding yeast KMN network (Spc105-Flag/Kre28^WT, Mtw1 complex, Ndc80 complex) (S. cerevisiae, UniProt P53148 1-917; Q04431 1-385; P39731 1-289; P40568 1-576; P47149 1-201; Q12143 …); experiment: cross-linking; recombinant KMN and Ipl1/Sli15 mixed at equimolar amounts, BS3 (d0/d12), 35 °C, 30 min; cross-links identified by mass spectrometry (xQuest)
# T2 construct: Spc105 (Knl1 homologue), S. cerevisiae; Kre28 (Zwint homologue), S. cerevisiae, wild type; Mtw1, S. cerevisiae; Dsn1, S. cerevisiae; Nnf1, S. cerevisiae; Nsl1, S. cerevisiae; Ndc80, S. cerevisiae; Nuf2, S. cerevisiae; Spc24, S. cerevisiae; Spc25, S. cerevisiae; also called wild-type Kre28 KMN network; not shown: Flag, C-terminal, kept; copies: + + + + + + + + +
# [3] = molecular target: T3, recombinant KMN network containing Kre28^ΔZwint (S. cerevisiae, UniProt P53148 1-917; Q04431 1-385; P39731 1-289; P40568 1-576; P47149 1-201; Q12143 …, ΔZwint (Zwint helix, residues 77–113)); experiment: pull-down; KMN or its subcomplexes from Sf9 cells immobilised on anti-Flag M2 beads; 100 µl of 2 µM Ipl1/Sli15 added to ~20 µl beads; 4 °C, 6 h; 25 mM HEPES pH 7.4, 200 mM NaCl, 1 mM MgCl2, 2.5% glycerol, 0.01% Tween-20; eluted with 3xFlag peptide; Coomassie and anti-His blot; also done with prolonged incubation times (Fig. EV3A)
# T3 construct: Spc105 (Knl1 homologue), S. cerevisiae; Mtw1, S. cerevisiae; Dsn1, S. cerevisiae; Nnf1, S. cerevisiae; Nsl1, S. cerevisiae; Ndc80, S. cerevisiae; Nuf2, S. cerevisiae; Spc24, S. cerevisiae; Spc25, S. cerevisiae; also called Kre28^ΔZwint KMN network; mutant KMN network; source: Sf9 insect cells, baculoviruses KT1-5 and KT1-6 mut, purified via Spc105-Flag on anti-Flag M2 beads; not shown: Flag, …
binding result [1],binding result [2],binding result [3],Binder
binds,,,"Ipl1/6xHis-Sli15 complex, dephosphorylated by λ phosphatase (complex, S. cerevisiae, dephosphorylated by λ phosphatase | dephosphorylated by λ phosphatase, Ipl1 (Aurora B homologue), S. cerevisiae; Sli15 (INCENP homologue), S. cerevisiae; also called Lambda phosphatase-treated Ipl1/Sli15; source: E. coli BL21, purified (HisTrap, SEC), then treated with λ-Protein Phosphatase (NEB) at 30 °C for 30 min) chain 1: MQRNSLVNIKLNANSPSKKTTTRPNTSRINKPWRISHSPQQRNPNSKIPSPVREKLNRLPVNNKKFLDMESSKIPSPIRKATSSKMIHENKKLPKFKSLSLDDFELGKKLGKGKFGKVYCVRHRSTGYICALKVMEKEEIIKYNLQKQFRREVEIQTSLNHPNLTKSYGYFHDEKRVYLLMEYLVNGEMYKLLRLHGPFNDILASDYIYQIANALDYMHKKNIIHRDIKPENILIGFNNVIKLTDFGWSIINPPENRRKTVCGTIDYLSPEMVESREYDHTIDAWALGVLAFELLTGAPPFEEEMKDTTYKRIAALDIKMPSNISQDAQDLILKLLKYDPKDRMRLGDVKMHPWILRNKPFWENKRL chain 2: MDWAIKAARKKTQRKPGSTRSIIETLDDLNNLTTDAHSEINQRLYESSEWLRNNVYMNTLKYEDKKMEESLISPENTHNKMDVEFPKMKGEYELSNSQNDAAKDVTKTPRNGLHNDKSITPKSLRRKEVTEGMNRFSIHDTNKSPVEPLNSVKVDANESEKSSPWSPYKVEKVLRESSKTSESPINTKRFDNQTWAAKEEMENEPILQALKKAESVKVKPPPNSGIARSQRRSNMFVPLPNKDPLIIQHIPPTKSSGSIPKVRTVKESPIAFKKKSTINSPAIRAVENSDTAGSTKASSVFDRLSSIPTKSFENKISRGNVGHKYSSSSIDLTGSPMKKVSQKFKSINSTDTDMQEALRDIFSVKNKITKNNSPKGKNSRKSSIPRFDKTSLKLTTHKKLAIIAEQKKKSKHSSDVHKTGSRPHSISPTKISVDSSSPSKEVKNYYQSPVRGYLRPTKASISPNKNKNLTTSQTPHRLKIKEKTLRKLSPNIADISKPESRKSKNYRLTNLQLLPPAEAERDDLKKKFDKRLSGIMRSQQEHHRRKQEKQKRMSHLEQDLKKQTSFSNDYKDIRLKESLAPFDNHVRDTINKNTAFSTDNILATINTVDHREIIGNVTPKIASVNDSLPEINTDSEDEASVTLAAWAKSPYLQEQLIRQQDINPQTIFGPIPPLHTDEIFPNPRLNRLKPRQIVPKRS"
binds,binds,binds,"Ipl1/6xHis-Sli15 complex (wild type, untreated) (complex, S. cerevisiae, Ipl1 (Aurora B homologue), S. cerevisiae; Sli15 (INCENP homologue), S. cerevisiae; the full-length form was preferentially pulled down; also called Ipl1/Sli15; Ipl1/Sli15 complex; source: E. coli BL21, purified (HisTrap, SEC on Superdex 200)) chain 1: MQRNSLVNIKLNANSPSKKTTTRPNTSRINKPWRISHSPQQRNPNSKIPSPVREKLNRLPVNNKKFLDMESSKIPSPIRKATSSKMIHENKKLPKFKSLSLDDFELGKKLGKGKFGKVYCVRHRSTGYICALKVMEKEEIIKYNLQKQFRREVEIQTSLNHPNLTKSYGYFHDEKRVYLLMEYLVNGEMYKLLRLHGPFNDILASDYIYQIANALDYMHKKNIIHRDIKPENILIGFNNVIKLTDFGWSIINPPENRRKTVCGTIDYLSPEMVESREYDHTIDAWALGVLAFELLTGAPPFEEEMKDTTYKRIAALDIKMPSNISQDAQDLILKLLKYDPKDRMRLGDVKMHPWILRNKPFWENKRL chain 2: MDWAIKAARKKTQRKPGSTRSIIETLDDLNNLTTDAHSEINQRLYESSEWLRNNVYMNTLKYEDKKMEESLISPENTHNKMDVEFPKMKGEYELSNSQNDAAKDVTKTPRNGLHNDKSITPKSLRRKEVTEGMNRFSIHDTNKSPVEPLNSVKVDANESEKSSPWSPYKVEKVLRESSKTSESPINTKRFDNQTWAAKEEMENEPILQALKKAESVKVKPPPNSGIARSQRRSNMFVPLPNKDPLIIQHIPPTKSSGSIPKVRTVKESPIAFKKKSTINSPAIRAVENSDTAGSTKASSVFDRLSSIPTKSFENKISRGNVGHKYSSSSIDLTGSPMKKVSQKFKSINSTDTDMQEALRDIFSVKNKITKNNSPKGKNSRKSSIPRFDKTSLKLTTHKKLAIIAEQKKKSKHSSDVHKTGSRPHSISPTKISVDSSSPSKEVKNYYQSPVRGYLRPTKASISPNKNKNLTTSQTPHRLKIKEKTLRKLSPNIADISKPESRKSKNYRLTNLQLLPPAEAERDDLKKKFDKRLSGIMRSQQEHHRRKQEKQKRMSHLEQDLKKQTSFSNDYKDIRLKESLAPFDNHVRDTINKNTAFSTDNILATINTVDHREIIGNVTPKIASVNDSLPEINTDSEDEASVTLAAWAKSPYLQEQLIRQQDINPQTIFGPIPPLHTDEIFPNPRLNRLKPRQIVPKRS"
binds,,,"Ipl1/6xHis-Sli15^4E complex (complex, S. cerevisiae, Ipl1 (Aurora B homologue), S. cerevisiae; Sli15 (INCENP homologue), S. cerevisiae, 4E mutant (plasmid pAD146 in pETDuett); also called Sli15^4E mutant; Sli15 R231E R232E L239E K242E; source: E. coli BL21, purified (HisTrap, SEC on Superdex 200)) chain 1: MQRNSLVNIKLNANSPSKKTTTRPNTSRINKPWRISHSPQQRNPNSKIPSPVREKLNRLPVNNKKFLDMESSKIPSPIRKATSSKMIHENKKLPKFKSLSLDDFELGKKLGKGKFGKVYCVRHRSTGYICALKVMEKEEIIKYNLQKQFRREVEIQTSLNHPNLTKSYGYFHDEKRVYLLMEYLVNGEMYKLLRLHGPFNDILASDYIYQIANALDYMHKKNIIHRDIKPENILIGFNNVIKLTDFGWSIINPPENRRKTVCGTIDYLSPEMVESREYDHTIDAWALGVLAFELLTGAPPFEEEMKDTTYKRIAALDIKMPSNISQDAQDLILKLLKYDPKDRMRLGDVKMHPWILRNKPFWENKRL chain 2: MDWAIKAARKKTQRKPGSTRSIIETLDDLNNLTTDAHSEINQRLYESSEWLRNNVYMNTLKYEDKKMEESLISPENTHNKMDVEFPKMKGEYELSNSQNDAAKDVTKTPRNGLHNDKSITPKSLRRKEVTEGMNRFSIHDTNKSPVEPLNSVKVDANESEKSSPWSPYKVEKVLRESSKTSESPINTKRFDNQTWAAKEEMENEPILQALKKAESVKVKPPPNSGIARSQEESNMFVPEPNEDPLIIQHIPPTKSSGSIPKVRTVKESPIAFKKKSTINSPAIRAVENSDTAGSTKASSVFDRLSSIPTKSFENKISRGNVGHKYSSSSIDLTGSPMKKVSQKFKSINSTDTDMQEALRDIFSVKNKITKNNSPKGKNSRKSSIPRFDKTSLKLTTHKKLAIIAEQKKKSKHSSDVHKTGSRPHSISPTKISVDSSSPSKEVKNYYQSPVRGYLRPTKASISPNKNKNLTTSQTPHRLKIKEKTLRKLSPNIADISKPESRKSKNYRLTNLQLLPPAEAERDDLKKKFDKRLSGIMRSQQEHHRRKQEKQKRMSHLEQDLKKQTSFSNDYKDIRLKESLAPFDNHVRDTINKNTAFSTDNILATINTVDHREIIGNVTPKIASVNDSLPEINTDSEDEASVTLAAWAKSPYLQEQLIRQQDINPQTIFGPIPPLHTDEIFPNPRLNRLKPRQIVPKRS"
